Laboratory results: article PMC11094075, “Ago2/CAV1 interaction potentiates metastasis via controlling Ago2 localization and miRNA action” (EMBO Reports, 2024)

Biological target: T1, HA-tagged wild-type Ago2 (HA-Ago2Wt), in Ago2-knockout A549 and HCC1806 cells (human, UniProt Q9UKV8 1-859)
T1 construct: Argonaute-2 (Ago2), human; source: lentiviral (pLV-EF1a-HA-Ago2-Blast), Ago2-knockout A549 and HCC1806 cells, in lysate; not shown: HA, N-terminal, kept
Assay: co-IP; Ago2-knockout A549 and HCC1806 cells expressing HA-Ago2Wt, HA-Ago2K212A or HA-Ago2K212R; IP with anti-HA, blot for endogenous CAV1; ratio pCAV1/pHA; vehicle or TM (10 µM)
Conditions: partners not purified

T1 sequence (Q9UKV8 whole entry): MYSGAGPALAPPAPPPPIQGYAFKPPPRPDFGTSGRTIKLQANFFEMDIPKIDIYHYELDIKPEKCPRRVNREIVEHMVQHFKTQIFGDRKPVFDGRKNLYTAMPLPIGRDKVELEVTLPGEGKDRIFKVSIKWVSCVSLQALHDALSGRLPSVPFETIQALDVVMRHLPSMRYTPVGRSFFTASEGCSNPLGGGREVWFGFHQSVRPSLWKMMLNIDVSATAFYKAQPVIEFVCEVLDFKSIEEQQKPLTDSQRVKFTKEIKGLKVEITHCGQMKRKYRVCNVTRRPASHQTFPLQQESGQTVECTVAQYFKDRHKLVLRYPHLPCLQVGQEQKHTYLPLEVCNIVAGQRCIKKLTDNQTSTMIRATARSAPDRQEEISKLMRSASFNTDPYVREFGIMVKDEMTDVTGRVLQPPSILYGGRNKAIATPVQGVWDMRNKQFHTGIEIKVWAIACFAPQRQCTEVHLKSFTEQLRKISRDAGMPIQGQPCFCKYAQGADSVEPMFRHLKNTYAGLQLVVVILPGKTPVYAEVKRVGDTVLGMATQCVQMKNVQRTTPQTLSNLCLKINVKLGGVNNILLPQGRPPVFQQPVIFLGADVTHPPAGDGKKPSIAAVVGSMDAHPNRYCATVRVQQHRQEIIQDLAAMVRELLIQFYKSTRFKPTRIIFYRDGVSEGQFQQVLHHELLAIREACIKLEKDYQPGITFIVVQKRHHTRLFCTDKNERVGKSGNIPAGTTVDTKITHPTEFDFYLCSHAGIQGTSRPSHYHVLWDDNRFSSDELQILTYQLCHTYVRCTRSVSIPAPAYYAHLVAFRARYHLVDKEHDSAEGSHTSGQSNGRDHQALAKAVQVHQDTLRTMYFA

B1: Caveolin-1 (CAV1), endogenous (natural protein, UniProt Q03135 1-178, looked up)
chain: MSGGKYVDSEGHLYTVPIREQGNIYKPNNKAMADELSEKQVYDAHTKEIDLVNRDPKHLNDDVVKIDFEDVIAEPEGTHSFDGIWKASFTTFTVTKYWFYRLLSALFGIPMALIWGIYFAILSFLHIWAVVPCIKSFLIEIQCISRVYSIYVHTVCDPLFEAVGKIFSNVRINLQKEI
notes: Caveolin-1 (CAV1), human; source: endogenous
percent of pCAV1/pHA left in cells treated with TM (10 µM) against vehicle: ~49%
